Source: patent US20200190192A1 (SUTRO BIOPHARMA, published 2020)
Blank lines part the entries; values can stand above or below the binder they belong to.

How the values were obtained:
[1] = molecular target: T1, cynomolgus Tim-3 expressed on CHO cells (cynomolgus monkey); assay: cell binding, CHO-cyno Tim-3 cells
T1 construct: also called cTim-3; Cyno Tim-3 (CHO)
T1 chain: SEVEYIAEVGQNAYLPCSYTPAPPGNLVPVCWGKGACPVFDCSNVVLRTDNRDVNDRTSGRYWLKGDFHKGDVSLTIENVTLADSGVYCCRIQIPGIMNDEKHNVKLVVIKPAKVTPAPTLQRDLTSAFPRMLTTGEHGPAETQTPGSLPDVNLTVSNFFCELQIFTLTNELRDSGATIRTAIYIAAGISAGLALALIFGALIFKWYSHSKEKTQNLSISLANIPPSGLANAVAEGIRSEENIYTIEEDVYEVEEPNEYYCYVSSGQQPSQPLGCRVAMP

[2] = molecular target: T2, human Tim-3 (Biacore analyte; TIM-3-Fc or TIM-3-HIS, not said which) (human, UniProt Q8TDQ0 22-202); assay: kinetics; method and analyte not given
T2 construct: also called TIM-3 antigen; not shown: Fc or HIS tag

[3] = molecular target: T3, human Tim-3 expressed on the cell surface (human, UniProt Q8TDQ0 22-301); assay: cell binding, CHO-human Tim-3 cells
T3 construct: also called hTim-3; Human Tim-3 (CHO)

[4] = molecular target: T4, biotinylated recombinant human PD-1 (AcroBiosystems) (human, UniProt Q15116 25-167, limits assumed, biotinylated (sites not given)); assay: competition, flow cytometry: biotin-PD-1 binding to CHO-human PD-L1 cells
T4 construct: Bought protein; also called biotinylated PD-1

[5] = molecular target: T1, cynomolgus Tim-3 expressed on CHO cells; assay: flow cytometry, CHO-cyno Tim-3 cells
[6] = molecular target: T5, recombinant human Tim-3-Fc (R&D Systems, 2365-TM) (human, UniProt Q8TDQ0 22-202, biotinylated in the Galectin-9 competition ELISA (sites not given)); assay: AlphaLISA bridging: Tim-3-Fc acceptor beads + PD-1 donor beads (signal needs both)
T5 construct: Bought protein; also called huTim-3-Fc; biotinylated Tim-3-Fc; not shown: Fc of the bought fusion protein

[7] = molecular target: T3, human Tim-3 expressed on the cell …; assay: flow cytometry, CHO-human Tim-3 cells
[8] = molecular target: T6, human PD-1 expressed on CHO cells (human, UniProt Q15116 25-288); assay: flow cytometry, CHO-human PD-1 cells
T6 construct: also called hPD-1; CHO-hPD-1

binding result [1]: binds | Kd [2]: 1.5 nM | koff [2]: 0.000334 s⁻¹ | kon [2]: 223000 M⁻¹ s⁻¹ | binding result [3]: binds
B1: Mouse hybridoma clone 22E11 (antibody, V domains shown)
VH: QVQLKESGPDLVAPSQSLSITCTVSGFSLTSYGVHWVRQPPGKGLEWLVVIWSDGSTTYNSALKSRLTISKDNSKSQVFLKMNSLQTDDTAMYYCARQGGYRYDDAMDYWGQGTSVAVSS
VL: DIVLTQSPASLAVSLGQRATISCKASQSVDYDGNSYVNWYQQKPGQPPKLLIYAASNLESGIPARFSGSGSGTDFTLNIHPVEEEDAATYYCQQSNEDPYTFGGGTKLEIK
notes: Mouse antibody; also called m22E11; 250.180.2.22E11

binding result [1]: no binding | Kd [2]: 0.431 nM | koff [2]: 0.000166 s⁻¹ | kon [2]: 386000 M⁻¹ s⁻¹ | binding result [3]: binds
B2: Mouse hybridoma clone 2D5 (antibody, V domains shown)
VH: EVQLQQSGPELVKPGTSMKISCRASGYPFIGYTMNWVKQSHGGNLEWIGLINPYNGITTYNQKFKGRATLSVDTSSTIAYMELLSLTSDDSAEYYCARSFFYGSSNDWLVYWGQGTLVTVSA
VL: DVLMTQTPLSLPVSLGDQASISCRSSQSIVHTNGNTYLEWYLQKPGQSPKLLIYKVSNRFSGVPDRFSGSGSGTDFTLKISRVEAEDLGVYYCFQGSHVPWTFGGGTELEIK
notes: Mouse antibody; also called 421.51.2.2D5.5E9

IC50 [4]: 11 nM | Kd [5]: 29 nM | EC50 [6]: 0.05 nM | Kd [7]: 4.4 nM | Kd [8]: 1.3 nM
B3: 1353-G10-scFv × 1649-A01-Fab (bispecific antibody, V domains shown)
VH 1: EVQLVQSGAEVKKPGASVKVSCKASGYRFPHYGISWVRQAPGQGLEWMGWISAYNGNTNYAQKLQGRVTMTTDTSTNTAYMELRSLRSDDTAVYYCARDVDYGTGSGYWGQGTLVTVSS
VL 1: SYELTQPPSVSVSPGQTARITCSGDALPKQYAYWYQQKPGQAPVMVIYKDTERPSGIPERFSGSSSGTKVTLTISGVQAEDEADYYCQSADNSITYRVFGGGTKVTVL
VH 2: EVQLVESGGGLVQPGGSLRLSCAASGFNISRYYIHWVRQAPGKGLEWVAGITPVRGYTEYADSVKDRFTISADTSKNTAYLQMNSLRAEDTAVYYCARGYVYRMWDSYDYWGQGTLVTVSS
VL 2: not shown
notes: scFv-Fc × Fab bi-specific; also called Sample C; protein sample C
